We go through one molecule from paper PMC6021402, “Dissecting ribosomal particles throughout the kingdoms of life using advanced hybrid mass spectrometry methods” (Nature Communications, 2018).

The stoichiometry N is the number of molecules, sites or subunits per partner or assembly.

Data set [1] addresses chloroplastic ribosomal protein L10 from S. oleracea (S. oleracea (spinach)). Nature of the data set: native MS; chloroplastic 70S ribosomes introduced into a QE-UHMR mass spectrometer; intact stalk complexes released by in-source trapping activation and their mass measured; quadrupole isolation and HCD fragmentation ejected a single L12 (pseudo-MS3).
Data set [2] deals with the molecule itself. Described as above.

B1: chloroplastic ribosomal protein L12 from S. oleracea (natural protein, S. oleracea (spinach), UniProt P02398 57-189, looked up)
chain: AVEAPEKIEQLGTQLSGLTLEEARVLVDWLQDKLGVSAASFAPAAAVAAPGAPADAAPAVEEKTEFDVSIDEVPSNARISVIKAVRALTSLGLKEAKELIEGLPKKLKEGVSKDDAEDAKKQLEDAGAKVSIV
notes: 50S ribosomal protein L12, chloroplastic, Spinacia oleracea; Six copies in each stalk complex; also called L7/L12; source: endogenous, in chloroplastic 70S ribosomes purified from spinach leaves (sucrose cushion, sucrose gradient)
As for B1, in data set [1], the stoichiometry N was found to be 6 L12 per L10. For the same molecule, the binding result in data set [2] is listed as “binds”.
